According to US20250340608A1 (PROTAGONIST THERAPEUTICS, published 2025):
Numbered stars: 1 amine (or outer) side, 2 acyl side, 3 side chain; on linkers, the order of the positions; unused ones are H or OH. Bridge positions count the residues as written; N and C are the ends. Square brackets hold non-standard residues; d marks the D form. Primed or numbered codes have the meaning given here. Side chains are listed from the residue outwards. Ends that are not written are not given here. * marks the point of attachment. Ida = iminodiacetic acid, O=C(CN(CC(=O)[*:3])[*:1])[*:2]; PEG8″ = PEG8 spacer conjugated to the Lys side chain; Dip = N[C@H](C(=O)O)C(c1ccccc1)c1ccccc1; Cyclohexanecarbonyl = O=C(C1CCCCC1)*; Palmitoyl = CCCCCCCCCCCCCCCC(=O)*; Me3Gly = C[N+](C)(C)CC(=O)*; β3hP = O=C(O)C[C@@H]1CCCN1; Isovaleryl = CC(C)CC(=O)*; PEG2′ = not defined here; PEG3′ = not defined here; PEG4′ = not defined here

T1: human ferroportin (SLC40A1) fused in frame with GFP, stably expressed in HEK293 cells (human, UniProt Q9NP59 1-571)
T1 sequence (looked up): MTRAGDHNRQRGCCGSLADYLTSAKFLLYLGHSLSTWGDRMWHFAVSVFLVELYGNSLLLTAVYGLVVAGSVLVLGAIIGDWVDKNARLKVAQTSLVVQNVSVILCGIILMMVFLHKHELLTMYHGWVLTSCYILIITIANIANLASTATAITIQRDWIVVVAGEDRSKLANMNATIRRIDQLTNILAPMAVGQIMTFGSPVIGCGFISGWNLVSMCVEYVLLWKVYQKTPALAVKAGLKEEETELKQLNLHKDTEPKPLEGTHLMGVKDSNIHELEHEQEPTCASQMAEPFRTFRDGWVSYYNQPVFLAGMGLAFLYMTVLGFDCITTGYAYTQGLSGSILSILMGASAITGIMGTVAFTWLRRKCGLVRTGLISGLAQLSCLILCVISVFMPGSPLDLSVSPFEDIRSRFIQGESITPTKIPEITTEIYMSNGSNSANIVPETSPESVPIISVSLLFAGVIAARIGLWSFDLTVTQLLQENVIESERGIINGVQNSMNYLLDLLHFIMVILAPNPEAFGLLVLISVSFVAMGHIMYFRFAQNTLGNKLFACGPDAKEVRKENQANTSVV


target: T1, human ferroportin (SLC40A1) fused in …; assay: cell-based or functional assay

| Binder | Potency EC50 [nM] | Potency EC50 (nM) |
| --- | --- | --- |
| H-DTHFPICIFGPRSKGWVCM-NH2 (not fully specified (bridges); cysteine pairing not given here) [Compound 18] | 125 |  |
| H-VDTHFPCIKFGPRSKGWVCK-NH2 (cysteine pairing not given here) [Compound 164] | 146 |  |
| DTHFPCIKFKPRSKGWVCK (not fully specified; IVA on side chain of Lys 10; C-terminal amide) [Compound 205] | > 300 |  |
| H-DTHFPCIKFGPRSKGWVCK([PEG3′-Isovaleryl])-NH2 (cysteine pairing not given here) [Compound 213] | 233 |  |
| {Isovaleryl-PEG3′}-DTHFPCIKFGPRSKGWVCK-NH2 (cysteine pairing not given here) [Compound 161] | 666 |  |
| Isovaleryl-DTHFPCIKFGPK([PEG3′-Palmitoyl])SKGWVCK-NH2 (cysteine pairing not given here) [Compound 201] | 4 |  |
| Cyclohexanecarbonyl-DTHFPCIKFGPRSKGWVCK-NH2 (not fully specified (bridges); cysteine pairing not given here) [Compound 168] | 30 |  |
| H-DTHFPCIKFGPRSK([PEG3′-Isovaleryl])GWVCK-NH2 (cysteine pairing not given here) [Compound 212] | > 300 |  |
| DTHFPCIKFKPRSKGWVCK (PEG3-IVA on side chain of Lys 10; C-terminal amide) [Compound 210] | 457 |  |
| Isovaleryl-DTHFPCIIFGPRSRGWVCK(PEG2′)-NH2 (not fully specified (bridges); cysteine pairing not given here) [Compound 180] | 9 |  |
| Isovaleryl-DTHFPCIKFC-NH2 (cysteine pairing not given here) [Compound 193] | 80 |  |
| H-DTHFAICIFGPRSKGWVCM-NH2 (cysteine pairing not given here) [Compound 26] | 147 |  |
| Isovaleryl-DTHFPCIKFEPRSKKWVCK-NH2 (not fully specified (bridges); cysteine pairing not given here) [Compound 214] | 15 |  |
| H-DTHFPCIKFGPRSKGWVCK-NH2 (cysteine pairing not given here) [Compound 215] |  | > 1000 |
| Isovaleryl-DTHFPCIKFGPRSCK-NH2 (cysteine pairing not given here) [Compound 188] | 30 |  |
| Isovaleryl-DTHFPCIKFGPRSK([PEG3′-Palmitoyl])GWVCK-NH2 (cysteine pairing not given here) [Compound 202] | 3 |  |
| H-DTHFPCIK(Isovaleryl)FGPRSKGWVCK-NH2 (cysteine pairing not given here) [Compound 204] | > 300 |  |
| H-DTHFPCIIFGPRSKGWVCM-NH2 (cysteine pairing not given here) [Compound 21] | 46 |  |
| Isovaleryl-DTHFPCIKFGPRSKGWVCK(Me3Gly)-NH2 (cysteine pairing not given here) [Compound 159] | 17 |  |
| Isovaleryl-DTHFPCIKFGPRSKGWVCK([PEG3′-Palmitoyl])-NH2 (cysteine pairing not given here) [Compound 203] | 4 |  |

| Binder | Potency EC50 [nM] | Potency EC50 (nM) |
| --- | --- | --- |
| Isovaleryl-DTHFPCIKFGPRSK(Me3Gly)GWVCK-NH2 (cysteine pairing not given here) [Compound 157] | 18 |  |
| H-DTHFPICIFAPRSKGWVCM-NH2 (cysteine pairing not given here) [Compound 22] | 9430 |  |
| Isovaleryl-DTHFPCIKFEPRSKGWVCK-NH2 (not fully specified (bridges); cysteine pairing not given here) [Compound 181] | 15 |  |
| Isovaleryl-DTHFPICIFGPRSK(PEG8″)GWVC-NH2 (not fully specified (bridges); cysteine pairing not given here) [Compound 176] | 6 |  |
| Isovaleryl-DTHFPCIIFGPRSRGWVCK(PEG8″)-NH2 (not fully specified (bridges); cysteine pairing not given here) [Compound 178] | 3 |  |
| Isovaleryl-DTHFPICIFGPRSK(PEG4′)GWVC-NH2 (not fully specified (bridges); cysteine pairing not given here) [Compound 177] | 6 |  |
| [Ida]TH[Dip][β3hP]ICIFGPRSKGWVCM-NH2 (disulfide 7-18 (inferred)) [Compound 5] | 17 |  |
| Isovaleryl-DTHFPCIK(Palmitoyl)FGPRSKGWVCK-NH2 (cysteine pairing not given here) [Compound 194] | 4 |  |
| Isovaleryl-DTHFPCIKFEPRSKGWCK-NH2 (not fully specified (bridges); cysteine pairing not given here) [Compound 183] | 17 |  |
| Isovaleryl-DTHFPCIIFGPRSRGWVCK(PEG4′)-NH2 (not fully specified (bridges); cysteine pairing not given here) [Compound 179] | 4 |  |
| H-DTHFPCIKFGPK([PEG3′-Isovaleryl])SKGWVCK-NH2 (cysteine pairing not given here) [Compound 211] | > 300 |  |
| Isovaleryl-DTHFPCIIFGPRSKGWVCK-NH2 (not fully specified (bridges); cysteine pairing not given here) [Compound 11] | 9 |  |
| Isovaleryl-DTHFPICIFGPRSKGWVC-NH2 (not fully specified (bridges); cysteine pairing not given here) [Compound 2] | 5 |  |
| Palmitoyl-DTHFPCIKFGPRSKGWVCK-NH2 (cysteine pairing not given here) [Compound 216] |  | > 1000 |
| H-DTHFPCIK([PEG3′-Isovaleryl])FGPRSKGWVCK-NH2 (cysteine pairing not given here) [Compound 209] | 342 |  |
| Isovaleryl-DTHFPCIK([PEG3′-Palmitoyl])FGPRSKGWVCK-NH2 (cysteine pairing not given here) [Compound 199] | 7 |  |
| H-DTHFPICIFGPRAKGWVCM-NH2 (cysteine pairing not given here) [Compound 16] | 88 |  |
| {Palmitoyl-PEG3′}-DTHFPCIKFGPRSKGWVCK-NH2 (cysteine pairing not given here) [Compound 217] |  | > 1000 |
| DTHFPCIKFKPRSKGWVCK (N-terminal isovaleric acid; PEG3-Palm on side chain of Lys 10; C-terminal amide) [Compound 200] | 6 |  |
| Isovaleryl-DTHFPCIIFGPRSKGWECK-NH2 (not fully specified (bridges); cysteine pairing not given here) [Compound 172] | 15 |  |
